As a reminder, the Kd is a measure of binding affinity in units of concentration. High values mean weaker binding, low ones tighter binding.

The target of the assay is T1, WT hTNF (wild type human TNF-α, N-terminal 6×His tag) (human, UniProt P01375 77-233).
T1 construct: also called His-TNF
Put plainly: BLI (Octet RED96), His-tagged hTNF on HIS1K biosensor, soluble receptor in solution, global 1:1 fit. How it is done: KD values were calculated using global fitting with a 1:1 model (R²≥0.95).
(In general: BLI is a label-free optical method that tracks binding on a fibre tip over time.)

T1 sequence (P01375 other isoform, or with tags, fused parts or gaps limits assumed): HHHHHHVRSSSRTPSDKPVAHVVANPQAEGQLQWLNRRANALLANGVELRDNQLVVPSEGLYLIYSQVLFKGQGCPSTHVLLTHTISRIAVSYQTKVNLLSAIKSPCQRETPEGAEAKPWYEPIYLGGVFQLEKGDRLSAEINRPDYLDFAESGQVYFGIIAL

B1: soluble hTNF-R1 (Peprotech) (receptor, human, UniProt P19438 41-201, looked up)
chain: DSVCPQGKYIHPQNNSICCTKCHKGTYLYNDCPGPGQDTDCRECESGSFTASENHLRHCLSCSKCRKEMGQVEISSCTVDRDTVCGCRKNQYRHYWSENLFQCFNCSLCLNGTVHLSCQEKQNTVCTCHAGFFLRENECVSCSNCKKSLECTKLCLPQIEN
notes: Bought soluble receptor used as analyte in the Octet assay; also called p55
Regarding B1, the Kd came out at 0.0102 µM.
